This note sets out measurements from patent publication JP2014141434A (dated 2014).

Assay [1] deals with T1, ヒトROBO2 (human).
T1 construct: also called hROBO2; pCI−hROBO2
T1 chain: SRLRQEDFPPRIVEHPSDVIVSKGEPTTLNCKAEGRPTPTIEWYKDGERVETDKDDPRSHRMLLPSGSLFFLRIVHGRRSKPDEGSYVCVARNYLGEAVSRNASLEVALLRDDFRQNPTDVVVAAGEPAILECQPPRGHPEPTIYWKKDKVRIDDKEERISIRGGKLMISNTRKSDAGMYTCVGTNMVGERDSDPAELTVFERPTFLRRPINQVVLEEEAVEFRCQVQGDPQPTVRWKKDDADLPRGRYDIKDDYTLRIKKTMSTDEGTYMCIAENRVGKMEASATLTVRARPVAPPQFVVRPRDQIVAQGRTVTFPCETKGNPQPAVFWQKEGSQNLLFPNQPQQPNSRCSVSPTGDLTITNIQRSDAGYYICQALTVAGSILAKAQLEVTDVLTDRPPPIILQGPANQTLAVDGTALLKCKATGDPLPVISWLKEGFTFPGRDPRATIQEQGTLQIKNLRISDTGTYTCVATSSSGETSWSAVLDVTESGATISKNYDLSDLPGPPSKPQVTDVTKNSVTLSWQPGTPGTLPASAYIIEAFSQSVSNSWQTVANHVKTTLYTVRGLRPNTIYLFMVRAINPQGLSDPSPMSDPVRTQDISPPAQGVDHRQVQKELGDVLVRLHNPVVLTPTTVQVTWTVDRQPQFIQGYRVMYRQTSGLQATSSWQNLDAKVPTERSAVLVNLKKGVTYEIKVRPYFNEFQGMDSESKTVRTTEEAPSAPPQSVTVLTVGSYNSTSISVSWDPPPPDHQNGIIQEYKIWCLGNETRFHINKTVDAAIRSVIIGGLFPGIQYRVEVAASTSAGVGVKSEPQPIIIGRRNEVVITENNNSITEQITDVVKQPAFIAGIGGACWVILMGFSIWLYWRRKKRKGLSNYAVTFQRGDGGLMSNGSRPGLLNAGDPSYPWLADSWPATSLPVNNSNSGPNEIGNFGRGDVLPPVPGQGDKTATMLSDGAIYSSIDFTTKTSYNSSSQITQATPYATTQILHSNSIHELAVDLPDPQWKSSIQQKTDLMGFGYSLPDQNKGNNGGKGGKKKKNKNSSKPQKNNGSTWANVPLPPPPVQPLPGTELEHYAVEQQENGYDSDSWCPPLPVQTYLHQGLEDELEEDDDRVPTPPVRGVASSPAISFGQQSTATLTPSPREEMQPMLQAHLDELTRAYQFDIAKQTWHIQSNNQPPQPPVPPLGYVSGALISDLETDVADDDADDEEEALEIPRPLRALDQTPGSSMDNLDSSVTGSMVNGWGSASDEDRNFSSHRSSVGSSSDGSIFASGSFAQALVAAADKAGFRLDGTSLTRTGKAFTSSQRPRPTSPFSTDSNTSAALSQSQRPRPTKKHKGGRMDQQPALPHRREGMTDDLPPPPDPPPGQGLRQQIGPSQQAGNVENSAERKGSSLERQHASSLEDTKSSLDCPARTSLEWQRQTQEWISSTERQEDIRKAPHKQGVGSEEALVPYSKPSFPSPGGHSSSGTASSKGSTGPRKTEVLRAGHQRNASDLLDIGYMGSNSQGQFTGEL
The assay can be described thus: flow cytometry, transfected HEK293 cells. Background: Flow cytometry measures light scatter and fluorescence of single cells or particles in a stream.

Assay [2] deals with T2, N末端FLAG−tag付加型カニクイザルROBO4 cynoROBO4−2 (cynomolgus monkey, UniProt Q8WZ75 28-1007 (human entry)).
T2 construct: also called pCI−FLAG−cynoROBO4−2
T2 chain: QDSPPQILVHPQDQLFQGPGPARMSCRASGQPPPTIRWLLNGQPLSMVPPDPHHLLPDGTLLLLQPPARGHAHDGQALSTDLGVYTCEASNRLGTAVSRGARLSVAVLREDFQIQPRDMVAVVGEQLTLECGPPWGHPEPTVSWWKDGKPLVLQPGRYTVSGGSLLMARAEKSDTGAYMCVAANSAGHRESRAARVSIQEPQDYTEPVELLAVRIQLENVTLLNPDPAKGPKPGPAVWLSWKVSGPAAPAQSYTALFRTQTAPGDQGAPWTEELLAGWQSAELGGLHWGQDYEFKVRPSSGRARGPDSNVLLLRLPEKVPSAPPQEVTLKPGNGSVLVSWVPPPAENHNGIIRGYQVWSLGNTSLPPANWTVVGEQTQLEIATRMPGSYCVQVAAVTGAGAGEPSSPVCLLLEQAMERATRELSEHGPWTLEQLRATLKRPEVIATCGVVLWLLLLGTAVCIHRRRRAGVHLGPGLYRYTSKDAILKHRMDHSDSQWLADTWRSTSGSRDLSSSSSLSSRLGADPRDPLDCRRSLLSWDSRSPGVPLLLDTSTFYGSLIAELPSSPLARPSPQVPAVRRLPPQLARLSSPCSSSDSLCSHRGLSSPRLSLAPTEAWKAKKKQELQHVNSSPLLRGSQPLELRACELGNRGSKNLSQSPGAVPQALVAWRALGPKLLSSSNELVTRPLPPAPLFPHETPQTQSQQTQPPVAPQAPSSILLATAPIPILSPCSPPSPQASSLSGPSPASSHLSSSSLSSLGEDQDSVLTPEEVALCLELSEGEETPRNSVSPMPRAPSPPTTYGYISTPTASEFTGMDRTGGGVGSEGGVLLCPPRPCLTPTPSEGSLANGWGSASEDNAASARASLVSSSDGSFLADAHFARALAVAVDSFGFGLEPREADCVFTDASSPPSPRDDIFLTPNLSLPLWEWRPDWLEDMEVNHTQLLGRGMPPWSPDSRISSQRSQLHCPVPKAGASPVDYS
Description: flow cytometry, transfected HEK293 cells.

B1: 抗ROBO4マウスモノクローナル抗体 MAb1 (antibody, V domains shown)
VH: EVQLVESGGGLVKPGGSLKLSCAASGFTFSTYAMSWVRQTPEKRLEWVATISNGGTYTYYPDSVKGRFTISRDNAENTLYLQMSSLRSEDTAMYFCARLIYYDYLDYWGHGTTLTVSS
VL: DAVMTQTPLSLPVSLGDQASISCRSSQSLENSNGNTYLNWYFQKPGQSPQLLIYRVSNRFSGVLDRFSGSGSGTDFTLKISRVEAEDFGVYFCLQVTHVPWTFGGGTKLEIKR
notes: Mouse IgG1 (gamma 1) / kappa from a hybridoma; The constant regions are not in the listing; also called MAb1
Turning to B1, the binding result in assay [1] is given as “no binding (tested: 10 μg/mL)”.

B2: ヒト化MAb1抗体 H−2143 (antibody, human IgG2, kappa, V domains shown)
VH: EVQLVESGGGLVQPGGSLRLSCAASGFTFSTYAMSWVRQAPGKRLEWVATISQGGTYTYYPDSVKGRFTISRDNAKNTLYLQMNSLRAEDTAVYYCARLIYYDYLDYWGQGTLVTVSS
VL: DIVMTQSPLSLPVTLGEPASISCRSSQSLENENKNLYLNWYLQKPGQSPQLLIYRVSNRFSGVPDRFSGSGSGTDFTLKISRVEAEDVGVYYCLQVTHVPWTFGPGTKVDIKR
notes: Humanised IgG2 / kappa; also called H-2143; hMAb1-H4 / hMAb1-L2
As for B2, the binding result in assay [2] is recorded as “binds”; in assay [1], “no binding (tested: 10 μg/mL (method of 4)-4-2))”.

B3: ヒト化MAb1抗体 H−1143 (antibody, human IgG2, kappa, V domains shown)
VH: EVQLVESGGGLVQPGGSLRLSCAASGFTFSTYAMSWVRQAPGKGLEWVATISQGGTYTYYPDSVKGRFTISRDNAKNTLYLQMNSLRAEDTAVYYCARLIYYDYLDYWGQGTLVTVSS
VL: DIVMTQSPLSLPVTLGEPASISCRSSQSLENENKNLYLNWYLQKPGQSPQLLIYRVSNRFSGVPDRFSGSGSGTDFTLKISRVEAEDVGVYYCLQVTHVPWTFGPGTKVDIKR
notes: Humanised IgG2 / kappa; also called H-1143; hMAb1-H2 / hMAb1-L2
As to B3, the binding result in assay [2] is on record as “binds”; in assay [1], “no binding (tested: 10 μg/mL (method of 4)-4-2))”.

B4: ヒト化MAb1抗体 H−2140 (antibody, human IgG2, kappa, V domains shown)
VH: EVQLVESGGGLVQPGGSLRLSCAASGFTFSTYAMSWVRQAPGKRLEWVATISQGGTYTYYPDSVKGRFTISRDNAKNTLYLQMNSLRAEDTAVYYCARLIYYDYLDYWGQGTLVTVSS
VL: DIVMTQSPLSLPVTLGEPASISCRSSQSLENSNGNTYLNWYLQKPGQSPQLLIYRVSNRFSGVPDRFSGSGSGTDFTLKISRVEAEDVGVYYCLQVTHVPWTFGPGTKVDIKR
notes: Humanised IgG2 / kappa; also called H-2140; hMAb1-H4 / hMAb1-L1
For B4, the results for the binding result in assay [2] and in assay [1] were “binds” and “no binding (tested: 10 μg/mL (method of 4)-4-2))”, respectively.
